One block for each molecule: values may come before it. Where no end group is shown, it is not given here.
Experiments:
[1] = Peptide degradation in mouse kidney membranes; assay type: in vitro ADME; conditions: after 15 minutes, compared to Ang-(1-7) and Ang II
Procedure: Peptides (10^−4M) were incubated with 45 μg of murine kidney membrane preparations and diluted with 50 mM Tris-HCl buffer pH 7.4 laced with 0.1% BSA to minimise adhesion of the peptide onto the tube walls. Incubations proceeded for the desired time, after which the reaction was stopped by addition of half volume of 350 mM HClO4. Samples were then centrifuged to remove any particulates prior to LCMS analysis.
Ang-(1-6) degradation in mouse kidney membranes over 30 minutes compared to Ang-(1-7) and Ang II. (FIG. 4A)

AT2 receptor [2] = target: T1, AT2 receptor (Homo sapiens, UniProt P50052); test: cAMP in AT2-transfected HEK293 cells; assay type: cell-based; conditions: for intracellular cAMP production: AT2-transfected HEK293, 15 min stimulation
T1 construct: expressed in transfected cells; host or cells: HEK-293, transient transfection with PolyFect
T1 sequence (P50052 1-363): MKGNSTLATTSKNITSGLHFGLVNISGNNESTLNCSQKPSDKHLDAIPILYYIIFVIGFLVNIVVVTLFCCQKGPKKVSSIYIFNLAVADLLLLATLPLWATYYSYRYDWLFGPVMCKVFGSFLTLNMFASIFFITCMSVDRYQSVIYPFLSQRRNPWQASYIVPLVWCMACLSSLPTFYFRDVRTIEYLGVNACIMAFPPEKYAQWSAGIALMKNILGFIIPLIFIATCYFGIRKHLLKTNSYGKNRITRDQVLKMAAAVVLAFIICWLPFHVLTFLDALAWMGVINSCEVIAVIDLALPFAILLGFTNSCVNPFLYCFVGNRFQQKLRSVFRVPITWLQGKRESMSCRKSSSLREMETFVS
Procedure: Human embryonic kidney (HEK-293) cells were cultured in DMEM medium supplemented with FBS (10%), HEPES buffer (1%), sodium pyruvate (1%), and L-glutamine (1%) and maintained under standard conditions (5% CO2, 95% humidity and 37° C.). Cells were cultured in 100 mm cell culture dishes and seeded in 48-well plates at a density of 75,000 cells per well. The next day, HEK-293 cells were transfected using a transient transfection procedure following the manufacturer's instructions. Briefly, 150 ng of control plasmid pcDNA3.1 or a combination of 50 ng of pcDNA3.1 and 100 ng of expression vectors containing the cDNA for Mas, MrgD, AT1 or AT2, were mixed with serum-free medium and PolyFect transfection reagent. After 10 min incubation at room temperature, which allowed the complex formation, complete medium was added and the total volume was transferred into appropriate wells of the 48-well plate. The cells were incubated for 16-20 hrs. The next day, the medium was replaced by serum-free medium 1 hr before stimulation. After stimulation with A779, D-Pro, PD123319, forskolin (all 10^−6 M), or PTX (50 ng/ml), or SQ22536 (2×10^−6M) for 15 min, the solvent, Ang-(1-6) or C21 (all in the mentioned concentrations) were added for 15 min. Then, the cells were lysed by adding 180 μl/well of 0.1M hydrochloric acid with 0.1% Triton X-100, and the lysates were stored at −80° C. until cAMP measurement. The protein concentration was determined using Pierce BCA Protein Assay Kit according to the manufacturer's protocol (Thermo Fisher Scientific, Waltham, Mass., USA).
(§1) cAMP concentration in cell lysates was determined using Direct cAMP ELISA kit (Enzo Life Sciences Ltd., Exeter, United Kingdom). Briefly, wells of 96-well plate (Goat Anti-Rabbit IgG pre-coated) were neutralized with 50 μl of Neutralizing Reagent. Next, 100 μl of acetylated cAMP standard or cell lysate was added, followed by 50 μl of blue cAMP-Alkaline Phosphatase Conjugate and 50 μl of yellow EIA Rabbit Anti-cAMP antibody. The plate was then incubated on a shaker (˜400 rpm) at room temperature for 2 h. Next, the wells were aspirated and rinsed three times with Wash Buffer (1:10, Tris buffered saline containing detergents and sodium azide in deionized water). After the final wash, the plate was tapped against clean paper towel to remove any remaining Wash Buffer. To each well, 200 μl p-Nitrophenyl Phosphate Substrate Solution was added, and the plate was incubated for 1 h at room temperature. The enzymatic reaction was stopped by adding 50 μl of Stop Solution, and the absorbance at 405 nm was measured immediately. The cAMP concentration was determined from non-linear standard curve using GraphPad Prism 6.0 software.
The results are illustrated by FIG. 1A.
pcDNA-transfected HEK293 cells and AT2-transfected HEK293 cells were stimulated for 15 min with a range of concentrations (10^−16 to 10^−6 M) of Ang-(1-6). The results are illustrated by FIGS. 1B and 1C.
AT2-transfected HEK293 cells were stimulated for 15 min with a range of concentrations (10^−13 to 10^−6 M) of C21, Ang (1-4) and Ang (1-7) PBS and the concentration of cAMP was measured in accordance with the methodology provided. The results are illustrated by FIGS. 6 and 7.
AT2-transfected HEK293 cells were stimulated for 15 min with C21, Ang-(1-6) and a range of concentrations (10^−14 to 10^−7 M) of Ala^1-Ser^4-Ang-(1-6), and the concentration of cAMP was measured in accordance with the methodology provided.
AT2-transfected HEK293 cells were stimulated for 15 min with Ang-(1-6) and a range of concentrations (10^−15 to 10^−7 M) of Ser^4-Ang-(1-6) and the concentration of cAMP was measured in accordance with the methodology provided.

[3] = system: Human kidney cancer A498 cells; test: Colony formation assay; assay type: cell-based; conditions: daily treatment for 5 days
Procedure: Human kidney cancer A498 cells were seeded at 300 cells/well in a 6-well plate. The next day, cells were treated with various peptides daily. Each condition was run in triplicate. After 5 days of treatment, cells were washed once with PBS after media removal, stained with 0.5% crystal violet in 30% ethanol and 3% formaldehyde for 10 min at RT and washed with distilled water. Colonies were counted under the microscope.
Human renal cancer cells were treated with Ang-(1-6) or analogues and the effect on colony formation counted. Such cells are used for in vivo experiments in rodents when implanted subcutaneously or into the kidney to generate a rapidly forming and growing tumour, being leathal if untreated.

AT2 receptor [4] = target: T1, AT2 receptor; test: Block of Ang-(1-6) mediated cAMP signal in AT2-transfected HEK293 cells; assay type: cell-based; conditions: Ang-(1-6) 10^−10 M, increasing antagonist concentrations
Procedure: Human embryonic kidney (HEK-293) cells were cultured in DMEM medium supplemented with FBS (10%), HEPES buffer (1%), sodium pyruvate (1%), and L-glutamine (1%) and maintained under standard conditions (5% CO2, 95% humidity and 37° C.). Cells were cultured in 100 mm cell culture dishes and seeded in 48-well plates at a density of 75,000 cells per well. The next day, HEK-293 cells were transfected using a transient transfection procedure following the manufacturer's instructions. […] The protein concentration was determined using Pierce BCA Protein Assay Kit according to the manufacturer's protocol (Thermo Fisher Scientific, Waltham, Mass., USA).
cAMP concentration in cell lysates was determined using Direct cAMP ELISA kit (Enzo Life Sciences Ltd., Exeter, United Kingdom). […] The enzymatic reaction was stopped by adding 50 μl of Stop Solution, and the absorbance at 405 nm was measured immediately. The cAMP concentration was determined from non-linear standard curve using GraphPad Prism 6.0 software.
Cells were stimulated for 15 min with (a) 10^−11 M and 10^−1° M Ang-(1-6), (b) Ala^1-Ang-(1-6) (10^−10 M) or (c) a range of concentrations (10^−12M to 10^−8M) of Ala^1-Ang (1-6) together with Ang-(1-6) at a concentration of 10^−10M. The concentration of cAMP was measured in accordance with the methodology provided.

HUVEC = test: cAMP in primary human umbilical vein endothelial cells; assay type: cell-based; conditions: 15 min stimulation
Procedure: Primary human umbilical vein endothelial cells (HUVEC) were purchased from PromoCell (Heidelberg, Germany). HUVEC were cultured in 100 mm cell culture dishes and were seeded at 75,000 per well in 24-well plates at passage 5-7, for stimulation. Stimulation with Ang-(1-6) or C21 and the blockers was carried out as described above.
as §1, with “To each well, 200 μl p-Nitrophenyl Phosphate Substrate Solution was added, and the plate was incubated for 1 h at room temperature.” left out, “software. […]” for “software.”

Molecule: RVSIH [Ser^4-Ang (2-6), fragment peptide 2-6 with Ser substitution]
- number of colonies versus solvent (PBS) [3]: significant reduction of colonies

Molecule: RVYIH [Ang (2-6), truncated version of Ang (1-6)]
- number of colonies versus solvent (PBS) [3]: significant reduction of colonies

Molecule: ARVYIH [Ala^1-Ang-(1-6), variant of Ang-(1-6) with Ala at position 1, AT2 antagonist]
- block of cAMP-generating capacity of Ang-(1-6) (AT2 receptor [4]): completely blocked
- intracellular cAMP production (AT2 receptor [2]): no effect

Molecule: CCCCOC(=O)NS(=O)(=O)c1sc(CC(C)C)cc1-c1ccc(Cn2ccnc2)cc1 [C21]
- cAMP stimulation in primary endothelial cells (HUVEC) (HUVEC): can stimulate such cells

The next lines start with the values.

- peptide degradation [1]: rapid
Molecule: DRVYIH [Ang (1-6), DRVYIH]

- concentration at Emax (cAMP) (AT2 receptor [2]; AT2-transfected HEK293): 10^−11 M
- intracellular cAMP production (AT2 receptor [2]): increases intracellular cAMP production
- increase in intracellular cAMP production compared with Ang (1-6) (AT2 receptor [2]; same concentration (10^−11M)): greater increase
Molecule: ARVSIH [Ala^1-Ser^4-Ang-(1-6), variant of Ang-(1-6) with Ala at position 1 and Ser at position 4]

- AT2 stimulation relative to Ang (1-6) (AT2 receptor [2]; AT2-transfected HEK293, 10^−15 to 10^−7 M): comparable to Ang (1-6)
- intracellular cAMP production (AT2 receptor [2]): increases intracellular cAMP production
Molecule: DRVSIH [Ser^4-Ang-(1-6), variant of Ang-(1-6) with Ser at position 4]

- intracellular cAMP production (AT2 receptor [2]): do not increase intracellular cAMP
Molecule: DRVY (Angiotensin-2; UniProt P01019 25-28, looked up, fragment) [Ang (1-4), angiotensin fragment 1-4, reference compound]

- intracellular cAMP production (AT2 receptor [2]): do not increase intracellular cAMP
Molecule: DRVYIHP [Ang (1-7), reference compound]
